Experimental data: paper PMC9040744 (mBio, 2022)

Biological target: JUNV GP1 (Junín virus GP1 glycoprotein, residues 87 to 232) (Junín virus (JUNV), strain XJ13 …, UniProt C1K9J9)
Test: crystal structure
Details: both partners purified

B1: Fab fragment of NAb JUN1 (Fab, V domains shown)
VH: LVQSVETGGGLVRPGNSLKLSCVTSGFTFSNYQMHWLRQPPGKRLEWIAVITVKSDNYGANYVESVKGRFAISRDDSKSSVYLEMNRLREEDTATYFCSRSGIYDGYYAYAMDYWGQGTSVTVSS
VL: SVVMTQSQKFMSTSVGDRVSITCKASQIVGTSVAWYQQKAGQSPKLLIYWASTRHTGVPDRFTAGGSGTDFTLTITNVQSEDLADYFCQQYATYPLTFGSGTKLELK
notes: also called Fab JUN1; JUN1 Fab; source: HEK293T, heavy and light chains coexpressed, purified
  binding result: binds
